# Reference: patent publication US20220332821A1 (Novartis, published 2022)
# T1: BCMA on KMS11 myeloma cells (UniProt Q02223 1-184)
# T1 sequence (looked up): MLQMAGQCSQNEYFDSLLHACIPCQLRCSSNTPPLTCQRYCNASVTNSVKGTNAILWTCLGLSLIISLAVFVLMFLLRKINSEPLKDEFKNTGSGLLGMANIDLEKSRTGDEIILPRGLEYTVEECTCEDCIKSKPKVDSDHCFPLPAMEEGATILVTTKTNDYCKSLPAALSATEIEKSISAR
# T2: soluble BCMA (UniProt Q02223 1-54)
# T2 sequence (looked up): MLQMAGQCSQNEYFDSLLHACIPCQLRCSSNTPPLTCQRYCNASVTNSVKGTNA
# T3: Mouse BCMA-Fc (mouse, UniProt O88472 1-49, limits assumed, not fully specified)
# T3 construct: not shown: Fc part
# T3 chain (looked up): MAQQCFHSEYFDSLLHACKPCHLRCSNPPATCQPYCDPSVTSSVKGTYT
# T4: Human CD3-biotin (human)
# T4 chain: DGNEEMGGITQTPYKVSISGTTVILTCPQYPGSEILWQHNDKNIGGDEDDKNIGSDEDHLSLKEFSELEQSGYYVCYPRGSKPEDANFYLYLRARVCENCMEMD
# What was measured:
# [1] = target: T1, BCMA on KMS11 myeloma cells; assay: cell-based or functional assay
# soluble BCMA = target: T2, soluble BCMA; assay: cell-based or functional assay
# Mouse BCMA-Fc = target: T3, Mouse BCMA-Fc; assay: method not stated; mean of three biological replicates
# Human CD3-biotin = target: T4, Human CD3-biotin; assay: as above
# Cyno BCMA-Fc = target: T5, Cyno BCMA-Fc (cynomolgus, UniProt A0A2K5UD97 1-53); assay: as above
# T5 construct: not shown: Fc part
# T5 sequence (A0A2K5UD97 entry or part of it): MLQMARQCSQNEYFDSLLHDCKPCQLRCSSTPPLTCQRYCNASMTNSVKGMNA
binder,measurement,setting,value
"BSBM3 (bispecific antibody, Heterodimeric IgG1 format: anti-BCMA Fab half antibody and anti-CD3 scFv-Fc half antibody; also called BSMB3) heavy: not shown light: QSALTQPASVSGSPGQSITISCTGTSSDVGGYNYVSWYQQHPGKAPKLMIYDVSNRLRGVSNRFSGSKSGNTASLTISGLQAEDEADYYCSSYTSSSALYVFGSGTKVTVLGQPKAAPSVTLFPPSSEELQANKATLVCLISDFYPGAVTVAWKADSSPVKAGVETTTPSKQSNNKYAASSYLSLTPEQWKSHRSYSCQVTHEGSTVEKTVAPTECS not shown",EC50 in RTCC assay (without added recombinant soluble BCMA),[1],~0.07 µg/mL
same,"EC50 in RTCC assay, BSBM3 with AL-102 (gamma secretase inhibitor that raises surface BCMA)",[1],0.02 nM
same,"EC50 of KMS11-Luc cell death in RTCC assay, BSBM3 alone",[1],1 nM
same,"EC30 in RTCC assay, fold increase with 30 ng/mL soluble BCMA",soluble BCMA,6 fold
same,"EC30 in RTCC assay, fold increase with 100 ng/mL soluble BCMA",soluble BCMA,15 fold
same,"EC30 in RTCC assay, fold increase with 300 ng/mL soluble BCMA",soluble BCMA,41 fold
same,Kd,Mouse BCMA-Fc,1.15 nM
same,Kd,Human CD3-biotin,8.78 nM
same,Kd,Cyno BCMA-Fc,1.29 nM
